Source: paper PMC3773174

Molecular target: Sso1pHT (yeast t-SNARE Sso1p without the Habc domain), labelled with Cy5 (yeast)
Test: FRET or BRET

FRET efficiency of the single protein-protein complex (H): 0.96
Substance: Snc2p (yeast v-SNARE), labelled with Cy3 (from UniProt P33328 1-115) (natural protein)
